For this assay, the target named is HLA-DR4 (human). Nature of the assay: competition.

By IC50 is commonly meant the concentration needed to halve the response being measured.

Molecule QPLALEGSLQKRGIVEQ [preproinsulin C22-A5] had a half-maximal inhibitory concentration (IC50) of 400 nM.

In the case of DLQVGQVELGGGPGAGSLQPLALE [preproinsulin C4-C27], the half-maximal inhibitory concentration (IC50) turned out to be 33000 nM.

Consider GGGPGAGSLQPLALEGSLQK [preproinsulin C13-C32], for which the concentration for half-maximal inhibition (IC50) amounted to 5000 nM.

The molecule GSLQPLALEGSLQKRGIV [preproinsulin C19-A3] came in with a concentration for half-maximal inhibition (IC50) of 500 nM. Compared with the last molecule, the IC50 is about 10-fold lower.

Values taken from patent US7049292 (dated 2006).
